Results taken from publication PMC3281585 (Science (New York, N.Y.), 2011).

B1: gp62 protein of the T4 clamp loader (natural protein, bacteriophage T4)
chain: SLFKDDIQLNEHQVAWYSKDWTAVQSAADSFKEKAENEFFEIIGAINNKTKCSIAQKDYSKFMVENALSQFPECMPAVYAMNLIGSGLSDEAHFNYLMAAVPRGKRYGKWAKLVEDSTEVLIIKLLAKRYQVNTNDAINYKSILTKNGKLPLVLKELKGLVTDDFLKEVTKNVKEQKQLKKLALEW
B2: gp44 protein of the T4 clamp loader (natural protein, bacteriophage T4)
chain: MITVNEKEHILEQKYRPSTIDECILPAFDKETFKSITSKGKIPHIILHSPSPGTGKTTVAKALCHDVNADMMFVNGSDCKIDFVRGPLTNFASAASFDGRQKVIVIDEFDRSGLAESQRHLRSFMEAYSSNCSIIITANNIDGIIKPLQSRCRVITFGQPTDEDKIEMMKQMIRRLTEICKHEGIAIADMKVVAALVKKNFPDFRKTIGELDSYSSKGVLDAGILSLVTNDRGAIDDVLESLKNKDVKQLRALAPKYAADYSWFVGKLAEEIYSRVTPQSIIRMYEIVGENNQYHGIAANTELHLAYLFIQLACEMQWK

Columns and labels:
[1] = molecular target: B2; test: crystal structure
crystal structure = molecular target: the molecule itself; test: crystal structure

B1: binds [1].

B2: binds (crystal structure).
